Data reported in the nanobody polyreactivity screen of Harvey et al. (2022).

Assay: yeast display, Sf9 membrane polyspecificity reagent, FACS + sequencing; frameworks hold sequencing errors
Method in brief: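 Galactose induction of a Saccharomyces cerevisiae BJ5465 synthetic nanobody display library ran 36–48 hours. The cells were then stained for 1 hour at 4 °C with 10% biotinylated, detergent-solubilized Sf9 membrane reagent, pulled down on streptavidin microbeads and FACS-sorted into low and high (top ~1%) gates on expression and reagent-binding fluorescence. Labels for polyreactivity follow the gate of origin.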
With “QVQHVESGGGLVQAGGSLRLSCAASVSIFGWKAMGWYRKAPGKERQLVAVITCAGSTNYADSVKGRFTISRDNAKNTVYLQMNSLKPEDTAVYYCAAENLGQGGNFAYFGYYYWGQGTQVTVSS” the “polyreactivity (PSR sort gate)” value was “low polyreactivity”. With “QVQHVESGGGLVQAGGSLRLSCAAYGRTLDVNAMGWYRQAPGKERELVAAIDWGVGTTYYADSVKGRFTISRDNAKNTVYLQMNSLKPEDTAVYYCAVEVYYSVYGYPVQYYYWGQGTQVTVSS” the “polyreactivity (PSR sort gate)” value was “high polyreactivity”. For “QVQHVESGGGLVQAGGSLRLSCASSGRIFPTNAMGWSRQAPGKDRELVASITRSGSTYYADSVKGRFTISRDNAKNTVYLQMNSLKPEDTAVYNCAAYAYIFMDWGGYPYYLYEYEYLGQGTQVTVSS”, the “polyreactivity (PSR sort gate)” value was “low polyreactivity”. With “QVQHVESGGGLVQAGGSLRLSCDASGSIFRVYAMGWDRQAPGKERELVAAISRDGSTNYADSVKGRFTISRDNAKNTVYLQMNSLKPEDTAVYYCAAYRTYRGARMNYWGQGTQVTVSS” the “polyreactivity (PSR sort gate)” value was “low polyreactivity”. For “QVQHVESGGGLVQAGGSLRLSGAASGRTFYKNTMGWSRQAPGKERELVAGISQRGGRTYYADSVKGRFTISRDYAKNTVYLQMNSLNPEDTAVYYCAVRSYVHGFDYWGQGTQVTVSS”, the “polyreactivity (PSR sort gate)” value was “high polyreactivity”. For “QVQHVESGGGLVQAGGSLRLSSAASGITFPVYAMGWYRPTPGKERELVAAITFSGSNTYYADSVKGRFTISRDNAKNTVYLQMNSLKPEDTAVYYCNAETGGVYFNYYYVGEYYYWGQGTQVTVSS”, the “polyreactivity (PSR sort gate)” value was “low polyreactivity”. With “QVQHVESGGGLVQAGGSLRLTCAASGRTFGVYAMGWYRQAPGKEREFVAVISWSDDSTYYADSVKGRFTISRDYAKNTVNLQMNSLKPEDTAVYYCNADDYLVYSGSHYGYWGQGTQVTVSS” the “polyreactivity (PSR sort gate)” value was “low polyreactivity”. In the case of “QVQHVESGGGLVQAGGSLRLTCAATGFTFEKNAMGWYRQAPGKERELVAAISRGGSTYADSVKGRFTISRDNAKNTVYLQMNSLKPEDTAVYYCAADTVYIFSSAINGEFVFWGQGTQVTVSS”, the “polyreactivity (PSR sort gate)” value is reported as “low polyreactivity”. In the case of “QVQHVESGGGLVQARGSLRLRCAASGFIFRANAMGWYRHAPGKERELVATISRSGGSTSYADSVKGLFTISRDNAKNTVYLQMNSLKPEDSAVYYCAARKYTLRRKSRYGYWGQGTQVTVSS”, the “polyreactivity (PSR sort gate)” value is reported as “high polyreactivity”. For “QVQHVESGGGLVQARGSLRLSCAASGFIIWGYAMGWYRQAPGKERELVAAISSSGGSTYYADSVKGRFTISRDNAKNTVYLQMNSLKPEDTAVYYCAAVRYQAYSGDGGYWGQGTQVTVSS”, the “polyreactivity (PSR sort gate)” value was “low polyreactivity”. With “QVQHVESGGGLVQSGGSLRLSCAASGRNFKFNPMGWYRQPPGKERELVAGITWTGSTTSYADSVKGRFTISRDNATNPVYLQMNSLKPEDTEVYYCDGDKIGFWYHGFYYRGQGTQVTVSS” the “polyreactivity (PSR sort gate)” value was “low polyreactivity”. For “QVQHVESGGRLVQAGGSLRLSCAASGSIFGRYVMGWYRQAPGKESELVAAISGSGGSTNYADSVKGRFTISRDNAKNTVYLQMNSLKPEDTAVYYCATLRWFWYTRSTRIGDYWGQGTQVTVSS”, the “polyreactivity (PSR sort gate)” value was “high polyreactivity”. For “QVQHVESGGRLVQAGGSLRLSCAASGSNWIYAMGWYRQAPGKERELVAAISVSGDRTYYADSVKGRFTISRDNAKNTVYLQMNSLKPEDTAVYYSATPPYPGRDYWGQGTEVTVSS”, the “polyreactivity (PSR sort gate)” value was “high polyreactivity”. With “QVQHVESGGRLVQAGGSLRLSCAASGSTLDVYAMGWYRQAPGKERELVAAISWSVGSTYYADSVKGRFKISRDNAKNTVYLQMNRLKPEDTAVYYCAAEPYEYAYFGYDYWGQGTQVTVSS” the “polyreactivity (PSR sort gate)” value was “high polyreactivity”. For “QVQHVESGGSLVQAGGSLRLSCAASGRTFRRYAMGWFRHAPGKAWELVAAIRSDGATYYADSVKGRFTISRDNAKNTVYLQMNSLKPEDTAVYYCNAVYVSSVTGHVDWGQGTQVTVSS”, the “polyreactivity (PSR sort gate)” value was “low polyreactivity”. For “QVQHVESGGVLVQAGGSLRLSCAASGRTFISNVMGWYRPAPGKERELVAGITGGGNTYYADSVKGRFTISRDNAKNTVYLQMNSLKPEDTAVYYCAVRYPSYGLSYVRYGYWGQGTQLTVSS”, the “polyreactivity (PSR sort gate)” value was “high polyreactivity”. With “QVQHVESGLGLVQAGCSLRLSCAASGITFYPYTMGWYRQAPGKERELVAAIDYNGDSTYYADSVKGRFTISRDNAKNTVYLQFNSLKPEDTAVYYCAADVWTLDPDEYDYWGQGTQVTVSS” the “polyreactivity (PSR sort gate)” value was “low polyreactivity”. With “QVQHVESGRGLVQAGGILRLTCAASGRTFEYYAMGWYRQAPGKERELVAAITYSGDSTYYADSVKGRFTISRDNAKNTFYLQMNSLKPEDTAVYYCAADWSSLKDDYWGQGTQVTVSS” the “polyreactivity (PSR sort gate)” value was “low polyreactivity”. In the case of “QVQHVESGRGLVQAGGSLRLICAASGRIFDLNDMGRSRQAPGKERELVAAITSAGSTYYADSVKGRFTISRDNAKNTVYLQMNSLKPEDTAVYYCNKVARGVVRPGRVGSDYWAQGTQVTVSS”, the “polyreactivity (PSR sort gate)” value is reported as “high polyreactivity”. For “QVQHVESGRGLVQAGGSLRLSCAASGLTFSRYAMGWYRQAPGKERELVAAITRSGGSTYYADSVKGRFTISRDNEKNTVYLQMKSLKPEDSAVYYCARTFTDRYGHWYGYWGQGTQVTVSS”, the “polyreactivity (PSR sort gate)” value was “high polyreactivity”. For “QVQHVESGVGLVQAGGSLRLSCAASGSTFDRYAMRWYRQAPGKERELVAAISWSAGRTYYADSVKGRFTISRDNAKNTVYLQMNSLKPEDTAVYYCAADQIVSGTYDYYWGQGTQVTVSS”, the “polyreactivity (PSR sort gate)” value was “low polyreactivity”. With “QVQHVESGVGLVQAGGSLRLSCAASGSTFSWYTMGWYRQAPGKERELVAAISWSGGRTYYADSVKGRFTISRDNAKNTVYLQMNSLKPEDTAVYYCAAYDYWYSLGDYQFYYWGQGTQVTVSS” the “polyreactivity (PSR sort gate)” value was “low polyreactivity”. With “QVQHVESRGGLVQAGGSLRLSCAASGLILSGYTMGWYRQAPGKERELVAAISRSGGSTYYADSVKGRFTISRDNAKNTVYLQMNSLKPEDTAVYYCAKVPIYRYGVWAMNYWGQGTLVTVSS” the “polyreactivity (PSR sort gate)” value was “high polyreactivity”. For “QVQHVESRGGLVQAGGSLRLSCAASGRTFSRNAMGRYRQAPGKERELVATITSDGSTNYADSVKGRFTISRDNAKNTVYLQMNSLKPEDTAVYYCAAGEQSSIIGAHDYWGQGTQVTVSS”, the “polyreactivity (PSR sort gate)” value was “low polyreactivity”. For “QVQHVESRGGLVQAGGSLRLSCAASGSTFGVYAMGRYRQAPGKERELDASISSGGRTKYADSVKGRFTISRDNAKNTVYLQMNSLKPEDTAVYFCAARIRYLGVRDNDNYYCGQGTQVTVSS”, the “polyreactivity (PSR sort gate)” value was “low polyreactivity”. With “QVQHVESVGGLVQAGGSLRLSCAASGRIFNYNSMGWYRLAPVKERELVAVITSVDSTNYADSVKGRFTISRDNAKNTVYLQMNSLKQEDTAVYYCASEYYSIRYGPHSIEVYCMEYWGQGTQVTVSS” the “polyreactivity (PSR sort gate)” value was “low polyreactivity”. For “QVQHVESVGGLVQAGGSLRLSCAASGSIFSNNVMGWYRQAPGKERELVAAITVSGGRTYYADSVKGRFTISRDNAKNSVYLQMNSLKPEDTAVYYCATGVWKYSPDGDVGDQLSGYDYWGQGTQVTVSS”, the “polyreactivity (PSR sort gate)” value was “low polyreactivity”. For “QVQHVESVGGLVQAGGSLRLSSATSGSIFITNAMGCYRQPPGKESELVAAIRDSGDRTYYADSVKGRFTISRDNGKNNVSLQMNSLKPEDTAVYYCNARCQEPLNYDYWGQGTQGTVSS”, the “polyreactivity (PSR sort gate)” value was “low polyreactivity”. With “QVQHVESVVGLVQAGVSLPLSGASSGYIFLENAMGWYRQATGKERELDAAITVSGGGTYYADSVKGRFTISRDNAKITVYLQMNSLKPEDTAVYYCAADEDNPWLWFYYWGLGTQVTVSS” the “polyreactivity (PSR sort gate)” value was “low polyreactivity”. For “QVQHVKSGGGLVQAGGSLRLSCAASGSIFGYNTMGWYRQAPGKERELVATITYRGGSTYYADSVKGRFTISRDNAKNTVYLQMNSLKPEDTAVYYCARRVTRYPYTTWDSAGDYWGQGTQVTVSS”, the “polyreactivity (PSR sort gate)” value was “high polyreactivity”. For “QVQIEESGGGLVQAGGSIRLSCAASGRIFFLNAMGWYRQAPGKERELVAAISKSGGSTYYADSEKGRFTISRDNAKNTGFLQMNSLKPEDTAVYYCAARLHRFIRVDFGYDYWGQGTQVTVSS”, the “polyreactivity (PSR sort gate)” value was “high polyreactivity”. For “QVQIEESGGGLVQAGGSLRLSCAASGFTFTYNDMGWNRQAPGKETEFVAAISSTGGSTYYADSVKGRFTISRDNAKNTVYLQMNSLKPEDTAVYYCAAEDSWYWDAWFDYWGQGTQVTVSS”, the “polyreactivity (PSR sort gate)” value was “low polyreactivity”. With “QVQIEESGGGLVQAGGSLRLSCAASGRIFSLNVMGWSRQAPRKERELVATIRGRGTSTYYADSVKGRFTISRDNAKNTVYLQMNSLKPEDTAVYYCAASGHGAYGYWGQGTQVTVSS” the “polyreactivity (PSR sort gate)” value was “low polyreactivity”. In the case of “QVQIEESGGGLVQAGRSLRLSCAASGFIFGSNAMGWYRQAPGKETELVAAISRSGGSTYYADSVKGRFTISRDYAKNTVYVQMNSLKPEDTAVYYGASYLYKTRYLTEYDYWGHGTQVTVSS”, the “polyreactivity (PSR sort gate)” value is reported as “high polyreactivity”. With “QVQIEESRGGLVQAGGSLRLSCAASGRIIDRYAMGWSRPAPRKERELVAAISSGGRTYYADSVKGRFTISRDNAKNTVYLQMHSLKPEDTAVYYCNAVAYSLSGYNSWGQGTQVTVSS” the “polyreactivity (PSR sort gate)” value was “high polyreactivity”. In the case of “QVQIEESRGGLVQAGGSLRLSCAASGRTFYYYAMGWYRQAPGKERELVAAISYRGGSTYYADSVKGRFTISRDNAKNTVFLQLNSLKPEDTAVYYCAKYPHPLKYPGYPSEFDYWGQGTQVSVSS”, the “polyreactivity (PSR sort gate)” value is reported as “low polyreactivity”. In the case of “QVQILESGGGLVQAGGSLRVSCAASGSTFSYYAMGWYRQAPGKERELVAAIRSSGGSTYYADSVKGRFTISRDNAKNTVYLQMNSLKPEDTAVYYCAARRSVGYRRYDYWGQGTQVTVSS”, the “polyreactivity (PSR sort gate)” value is reported as “high polyreactivity”. For “QVQIVDSGGGLVQAGGSLRLSCAASGSTFKPYAMGWYRQAPGKERELVAAITFSGGSTYYADSVKGRFTISRDNAKNTVYLQMNSLKPEDTAVYDCAARAFKFNGYYYWGQGTQVTVSS”, the “polyreactivity (PSR sort gate)” value was “high polyreactivity”. For “QVQIVDSGGGLVQAGGSLRLSCAASGSTFRAYAMGWYRQSPGKEWELVAAISSSGGSTYYADSVKGRFTISRDNAKITVYLQMNSLKPEDTAVYYFAAAFLAAGRNVRYYWGQGTQVTVSS”, the “polyreactivity (PSR sort gate)” value was “high polyreactivity”. In the case of “QVQIVESAAGLVQAGGSLRLSCAASGLTFTTYSKGWYRQAPGKERELVAAISRRGSRTYYADSVKGRFTISRDNSKNTVYLQMNSLKPEDTAVYYCNALTGSFKTYSFDYWGQGTQVTVSS”, the “polyreactivity (PSR sort gate)” value is reported as “high polyreactivity”.
